Source: PMC10415120

Target: MDC1 (endogenous, HCT116) [human (endogenous in HCT116)]
Assay: proximity ligation assay (PLA) in cells
Settings: ESCO2 KD HCT116 cells, bleomycin treated; 30 cells counted per group; mean ± SEM; parent: 14; read off a plot

- response (PLA dots per cell): 0.5
Substance: Flag-ESCO2 WT (in ESCO2 KD HCT116 cells) mutant S196A; T233A [human] / MDC1 (endogenous, HCT116) [human (endogenous in HCT116)] chain 1 S196A, chain 1 T233A
